Experimental data: PMC12053661

B1: Spt6-3XFLAG (wild type) [S. cerevisiae (endogenous in strain S288c)] / Spn1 (wild type) [S. cerevisiae (endogenous in strain S288c)] (parent)
chain 1: MEETGDSKLVPRDEEEIVNDNDETKAPSEEEEGEDVFDSSEEDEDIDEDEDEARKVQEGFIVNDDDENEDPGTSISKKRRKHKRREREEDDRLSEDDLDLLMENAGVERTKASSSSGKFKRLKRVGDEGNAAESESDNVAASRQDSTSKLEDFFSEDEEEEESGLRNGRNNEYGRDEEDHENRNRTADKGGILDELDDFIEDDEFSDEDDETRQRRIQEKKLLREQSIKQPTQITGLSSDKIDEMYDIFGDGHDYDWALEIENEELENGNDNNEAEEEEIDEETGAIKSTKKKISLQDIYDLEDLKKNLMTEGDMKIRKTDIPERYQELRAGITDYGNMSSEDQELERNWIAEKISVDKNFDANYDLTEFKEAIGNAIKFITKENLEVPFIYAYRRNYISSREKDGFLLTEDDLWDIVSLDIEFHSLVNKKDYVQRFYAELHIDDPIVTEYFKNQNTASIAELNSLQDIYDYLEFKYANEINEMFINHTGKTGKKHLKNSSYEKFKASPLYQAVSDIGISAEDVGENISSQHQIHPPVDHPSSKPVEVIESILNANSGDLQVFTSNTKLAIDTVQKYYSLELSKNTKIREKVRSDFSKYYLADVVLTAKGKKEIQKGSLYEDIKYAINRTPMHFRRDPDVFLKMVEAESLNLLSVKLHMSSQAQYIEHLFQIALETTNTSDIAIEWNNFRKLAFNQAMDKIFQDISQEVKDNLTKNCQKLVAKTVRHKFMTKLDQAPFIPNVRDPKIPKILSLTCGQGRFGADAIIAVYVNRKGDFIRDYKIVDNPFDKTNPEKFEDTLDNIIQSCQPNAIGINGPNPKTQKFYKRLQEVLHKKQIVDSRGHTIPIIYVEDEVAIRYQNSERAAQEFPNKPPLVKYCIALARYMHSPLLEYANLTSEEVRSLSIHPHQNLLSSEQLSWALETAFVDIVNLVSVEVNKATDNNYYASALKYISGFGKRKAIDFLQSLQRLNEPLLARQQLITHNILHKTIFMNSAGFLYISWNEKRQKYEDLEHDQLDSTRIHPEDYHLATKVAADALEYDPDTIAEKEEQGTMSEFIELLREDPDRRAKLESLNLESYAEELEKNTGLRKLNNLNTIVLELLDGFEELRNDFHPLQGDEIFQSLTGESEKTFFKGSIIPVRVERFWHNDIICTTNSEVECVVNAQRHAGAQLRRPANEIYEIGKTYPAKVIYIDYANITAEVSLLDHDVKQQYVPISYSKDPSIWDLKQELEDAEEERKLMMAEARAKRTHRVINHPYYFPFNGRQAEDYLRSKERGEFVIRQSSRGDDHLVITWKLDKDLFQHIDIQELEKENPLALGKVLIVDNQKYNDLDQIIVEYLQNKVRLLNEMTSSEKFKSGTKKDVVKFIEDYSRVNPNKSVYYFSLNHDNPGWFYLMFKINANSKLYTWNVKLTNTGYFLVNYNYPSVIQLCNGFKTLLKSNSSKNRMNNYR
chain 2: MSTADQEQPKVVEATPEDGTASSQKSTINAENENTKQNQSMEPQETSKGTSNDTKDPDNGEKNEEAAIDENSNVEAAERKRKHISTDFSDDDLEKEEHNDQSLQPTVENRASKDRDSSATPSSRQELEEKLDRILKKPKVRRTRRDEDDLEQYLDEKILRLKDEMNIAAQLDIDTLNKRIETGDTSLIAMQKVKLLPKVVSVLSKANLADTILDNNLLQSVRIWLEPLPDGSLPSFEIQKSLFAALNDLPVKTEHLKESGLGRVVIFYTKSKRVEAQLARLAEKLIAEWTRPIIGASDNYRDKRIMQLEFDSEKLRKKSVMDSAKNRKKKSKSGEDPTSRGSSVQTLYEQAAARRNRAAAPAQTTTDYKYAPVSNLSAVPTNARAVGVGSTLNNSEMYKRLTSRLNKKHK
B2: Spn1 (wild type) [S. cerevisiae (endogenous in strain S288c)] / Spt6-3XFLAG (wild type) [S. cerevisiae (endogenous in strain S288c)] (parent)
chain 1: B1 chain 2
chain 2: B1 chain 1

Variants of: B1
Experiment: Spt6-3XFLAG affinity purification with quantitative mass spectrometry
Details: shift to non-permissive temperature, point at -log10 p-value about 3.5, read off a plot
chain 1 F249K gave a screen value (log2 fold-change) of -4.2.

Variants of: B2
Experiment: as above
Details: with Spt6-3XFLAG (wild type) [S. cerevisiae (endogenous in strain S288c)]; shift to non-permissive temperature; point at -log10 p-value about 3.4; read off a plot
For chain 1 R263D, the screen value (log2 fold-change) was -4.

Same assay, conditions: with Spt6-3XFLAG (wild type) [S. cerevisiae (endogenous in strain S288c)]; shift to non-permissive temperature; point at -log10 p-value about 3.5; read off a plot
chain 1 F267E gave a screen value (log2 fold-change) of -4.3.
